In publication PMC2199947 one finds percent of the cadherin cleared from the lysate by immunoprecipitation of PTPmu data, which are given here for two substances.

The test addresses receptor-type protein tyrosine phosphatase PTPmu (endogenous, MvLu mink lung cells) (mink (endogenous in MvLu)). Kind of test: co-IP.

“116-kD cadherin of MvLu cells (natural protein)” registered a percent of the cadherin cleared from the lysate by immunoprecipitation of PTPmu of 80%.
“130-kD cadherin of MvLu cells (natural protein)” came in with a percent of the cadherin cleared from the lysate by immunoprecipitation of PTPmu of 80%.
